In patent US20260227403A1 one finds binding efficiency in comparison to the full-length immunogenic peptide P1 (%) data, which are given here for one molecule.

For test [1], the target named is peptide P40 and peptide P38. The experiment in a line: ELISA, 1 µg truncated peptide per well, 20 ng/mL mAb. In general terms: An ELISA detects its analyte on a solid surface through an enzyme-linked reagent.
Test [2] deals with peptides with further truncation from the N-terminus and C-terminus (beyond P40 and P38). The description is as above.

B1: ETV1 rabbit monoclonal antibody (29E4) (antibody, V domains shown)
VH: QELEESGGDLVKPGASLTLTCTASGFFFSAENHICWVRQAPGKGLEWIGCVYIGSYVGGSGDPYYASWAKGRFTISKTSSTTVTLQMSSLTAADTATYFCARDLGSLWGPGTLVTVSS
VL: DVVMTQTASSVSAAVGGTVTIACQSSQSVYDNNNLAWFQQKPGQPPKRLIYSASTLASGVSSRFKGSGYGTQFTLTISDVQCDDAATYYCVGAFSGYIFVFGGGTEVVVK
As for B1, the binding efficiency in comparison to the full-length immunogenic peptide P1 (%) was 80 to 100% in test [1] and 75% in test [2].
